These results are taken from US20230303648A1 (OSE IMMUNOTHERAPEUTICS, published 2023).

One may read the EC50 as the midpoint of the concentration-response curve. As a reminder, the EC50 (read off the curve) is the concentration that produces a half-maximal response. The term Kd denotes the concentration at which binding is half-saturated. A low value points to higher affinity.

The target in assay [1] is T1, recombinant human PD-1 (rPD1; Sino Biologicals, reference 10377-H08H) (human, UniProt Q15116 25-167).
T1 construct: bought; also called hPD1; PD-1 receptor
T1 sequence (Q15116 25-167 limits assumed): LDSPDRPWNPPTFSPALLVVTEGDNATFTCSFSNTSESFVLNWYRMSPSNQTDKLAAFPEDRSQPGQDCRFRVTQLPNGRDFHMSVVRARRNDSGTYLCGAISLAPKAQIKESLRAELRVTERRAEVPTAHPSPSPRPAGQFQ
In words: ELISA: PD-1 immobilised, anti-human Fc peroxidase detection. On the procedure:
A. PD-1 binding ELISA assay. Human recombinant PD-1 (rPD1) protein was immobilized, and antibodies were added at different concentrations. Revelation was performed with an anti-human Fc antibody coupled to peroxidase. Colorimetry was determined at 450 nm using TMB substrate. The anti PD-1 with 1 (anti PD-1*1 ▲ grey) or 2 anti PD-1 arms (anti PD-1*2 ◆) were tested as control. […] All constructions tested comprise a […] linker between the Fc and IL-7 domain.
(In an ELISA, binding on a coated surface is turned into a signal by an enzyme label.)

Assay [2] deals with T2, CD127 recombinant protein (Histidine tagged, Sino ref 10975-H08H) (UniProt P16871 21-239).
T2 construct: bought; used in the CD127 sandwich ELISA; also called CD127 receptor; IL-7Ralpha; not shown: histidine tag
T2 sequence (looked up): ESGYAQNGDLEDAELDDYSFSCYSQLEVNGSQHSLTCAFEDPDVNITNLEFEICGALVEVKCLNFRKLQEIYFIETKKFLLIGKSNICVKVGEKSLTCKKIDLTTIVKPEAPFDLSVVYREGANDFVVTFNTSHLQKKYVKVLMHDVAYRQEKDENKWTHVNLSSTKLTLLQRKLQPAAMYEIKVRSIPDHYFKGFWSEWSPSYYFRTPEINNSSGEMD
In words: sandwich ELISA, PD-1 immobilised, molecule preincubated with His-tagged CD127, anti-His-biotin + streptavidin-peroxidase, 450 nm. Here is the method:
Colorimetry was determined at 450 nm using TMB substrate. […] C.
Colorimetry was determined at 450 nm using TMB substrate.

Assay [3] addresses T3, biotinylated recombinant human PD-1 (human, UniProt Q15116 25-167, limits assumed, biotinylated (site not stated)).
T3 construct: used in solution in the PD-1/PD-L1 antagonist ELISA; also called PD-1 receptor
In words: competition ELISA: PD-L1 immobilised (competitor), biotinylated PD-1 at 0.6 µg/mL premixed with the molecule.

For assay [4], the target named is T4, CD132 receptor (Sinobiological 10555-H08B) (UniProt P31785 23-254).
T4 construct: bought; analyte in the Biacore CD132 assay; also called common gamma chain
T4 sequence (looked up): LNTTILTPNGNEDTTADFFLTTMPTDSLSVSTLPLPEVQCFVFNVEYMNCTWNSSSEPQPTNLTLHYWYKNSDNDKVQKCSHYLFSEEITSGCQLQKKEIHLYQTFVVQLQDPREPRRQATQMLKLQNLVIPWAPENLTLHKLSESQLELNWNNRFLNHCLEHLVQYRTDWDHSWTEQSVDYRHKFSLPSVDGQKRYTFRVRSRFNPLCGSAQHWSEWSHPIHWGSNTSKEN
Put plainly: Biacore, steady-state model: CD127 immobilised, IgG4 alone injected, then CD132 at 31.25-500 nM; baseline of CD127 with CD132 in the absence of IL-7. (In general: SPR reads the build-up and loss of mass on a sensor chip optically.)

T3 sequence (Q15116 25-167 limits assumed): as the sequence (Q15116 25-167 limits assumed) above

B1: anti-PD1*2 (control antibody without any IL7) (antibody, IgG4, V domains shown)
VH: QIQLVQSGSELKKPGASVKVSCKASGYTFTHYAMNWVRQAPGQGLEWMGWINTNTGEPTYAQGFTGRFVFSLDTSVSTAYLQISSLKAEDTAVYYCAREREPGMDNWGQGTLVTVSS
VL: DVVMTQSPLSLPVTLGQPASISCRSSQSLVHANTNTYLEWYQQRPGQSPRLLIYKVSNRFSGVPDRFSGSGSGTDFTLKISRVEAEDVGVYYCFQGTHVPNTFGQGTKLEIKR
notes: two anti PD-1 arms
On to B1, for which, in assay [1], the EC50 came out at 0.021 nM.

B2: anti PD-1 W142H bifunctional molecule with an isotype IgG1m + YTE (grey circle; no label printed on the sheet, name taken from legend paragraph 41) (other)
heavy: QIQLVQSGSELKKPGASVKVSCKASGYTFTHYAMNWVRQAPGQGLEWMGWINTNTGEPTYAQGFTGRFVFSLDTSVSTAYLQISSLKAEDTAVYYCAREREPGMDNWGQGTLVTVSSASTKGPSVFPLAPSSKSTSGGTAALGCLVKDYFPEPVTVSWNSGALTSGVHTFPAVLQSSGLYSLSSVVTVPSSSLGTQTYICNVNHKPSNTKVDKKVEPKSCDKTHTCPPCPAPELLGGPSVFLFPPKPKDTLYITREPEVTCVVVDVSHEDPEVKFNWYVDGVEVHNAKTKPREEQYASTYRVVSVLTVLHQDWLNGKEYKCKVSNKALPAPIEKTISKAKGQPREPQVYTLPPSRDELTKNQVSLTCLVKGFYPSDIAVEWESNGQPENNYKTTPPVLDSDGSFFLYSKLTVDKSRWQQGNVFSCSVMHEALHNHYTQKSLSLSPGKGGGGSGGGGSGGGGSDCDIEGKDGKQYESVLMVSIDQLLDSMKEIGSNCLNNEFNFFKRHICDANKEGMFLFRAARKLRQFLKMNSTGDFDLHLLKVSEGTTILLNCTGQVKGRKPAALGEAQPTKSLEENKSLKEQKKLNDLCFLKRLLQEIKTCHNKILMGTKEH
light: DVVMTQSPLSLPVTLGQPASISCRSSQSLVHANTNTYLEWYQQRPGQSPRLLIYKVSNRFSGVPDRFSGSGSGTDFTLKISRVEAEDVGVYYCFQGTHVPNTFGQGTKLEIKRTVAAPSVFIFPPSDEQLKSGTASVVCLLNNFYPREAKVQWKVDNALQSGNSQESVTEQDSKDSTYSLSSTLTLSKADYEKHKVYACEVTHQGLSSPVTKSFNRGEC
notes: also called anti PD-1 IL-7 W142H IgG1m + YTE
On to B2, for which, in assay [2], the “EC50 (read off the curve)” value was roughly 0.05 mg/L.

B3: anti-PD-1*1 (control construction, one anti PD-1 arm, devoid of IL-7 variant) (antibody, human IgG1, kappa, N297A)
heavy: QIQLVQSGSELKKPGASVKVSCKASGYTFTHYAMNWVRQAPGQGLEWMGWINTNTGEPTYAQGFTGRFVFSLDTSVSTAYLQISSLKAEDTAVYYCAREREPGMDNWGQGTLVTVSSASTKGPSVFPLAPSSKSTSGGTAALGCLVKDYFPEPVTVSWNSGALTSGVHTFPAVLQSSGLYSLSSVVTVPSSSLGTQTYICNVNHKPSNTKVDKKVEPKSCDKTHTCPPCPAPELLGGPSVFLFPPKPKDTLMISRTPEVTCVVVDVSHEDPEVKFNWYVDGVEVHNAKTKPREEQYASTYRVVSVLTVLHQDWLNGKEYKCKVSNKALPAPIEKTISKAKGQPREPQVYTLPPCRDELTKNQVSLWCLVKGFYPSDIAVEWESNGQPENNYKTTPPVLDSDGSFFLYSKLTVDKSRWQQGNVFSCSVMHEALHNHYTQKSLSLSPGK
chain: DKTHTCPPCPAPELLGGPSVFLFPPKPKDTLMISRTPEVTCVVVDVSHEDPEVKFNWYVDGVEVHNAKTKPREEQYASTYRVVSVLTVLHQDWLNGKEYKCKVSNKALPAPIEKTISKAKGQPREPQVYTLPPCRDELTKNQVSLWCLVKGFYPSDIAVEWESNGQPENNYKTTPPVLDSDGSFFLYSKLTVDKSRWQQGNVFSCSVMHEALHNHYTQKSLSLSPGK
light: B2 light
notes: one-armed antibody, IgG1 N298A
Take B3: the EC50 in assay [3] was 5.01 nM; in assay [1], 0.238 nM.

B4: CD127 (Sinobiological, 10975-H03H-50) (receptor, UniProt P16871 21-239, looked up)
chain: T2 sequence (looked up)
notes: bought; immobilised on the CM5 chip in the Biacore assays; also called CD127 receptor
As to B4, in assay [4], the Kd amounted to 2500 nM.
